Data on 14 molecules can be found in patent CN107840891A.

In assay [1] the target is MSLN抗原 (Mesothelin, MSLN-Biotin) (human) (UniProt Q13421). Nature of the assay: BLI (Octet RED96), MSLN-Biotin on AR2G sensor, TG1 periplasmic scFv as analyte.
Assay [2] shares this target. Nature of the assay: BLI (Octet RED96), MSLN-Biotin on AR2G sensor, TG1 periplasmic scFv as analyte (表2.2). (In general: Biolayer interferometry detects binding as a change in optical thickness at a sensor tip.)
Assay [3] shares this target. Nature of the assay: BLI (Octet RED96), MSLN-Biotin on AR2G sensor, TG1 periplasmic scFv as analyte (表2.1).
Assay [4] has the same target. Briefly: BLI (Octet RED96), MSLN-Biotin on AR2G sensor, TG1 periplasmic scFv as analyte (表2.4).

UniProt Q13421, sequence (Q13421 296-606 limits assumed): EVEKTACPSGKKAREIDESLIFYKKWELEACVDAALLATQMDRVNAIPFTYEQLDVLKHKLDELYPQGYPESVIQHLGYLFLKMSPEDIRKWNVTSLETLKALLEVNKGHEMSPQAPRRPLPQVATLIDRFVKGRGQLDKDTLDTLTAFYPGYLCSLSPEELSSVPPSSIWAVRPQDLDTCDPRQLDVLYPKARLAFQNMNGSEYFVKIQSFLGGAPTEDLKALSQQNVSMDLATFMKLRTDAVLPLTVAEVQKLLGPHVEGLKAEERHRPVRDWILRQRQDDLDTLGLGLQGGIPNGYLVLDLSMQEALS

B1: 2G8 (scFv, V domains shown)
VH: QVQLQQPGAELVKPGASMKLSCKASGTQFANYRMHWVKQRPGQGLEWIGMIHPNSDNTIYYEKFKSKATLTVDKSSSTAYMQLSSLTSEDSAVYYCAIIITPVVPKFDYWGQGTTLTVSS
VL: DIVMTQSHQFMSTSVGDRVSVTCKASHDVGTSVAWYQQKPGQSPKLLIYWASTRHTGVPDRFTGSGSGTDFTLTISNVQSEDLADYFCQQYSSYPLTFGAGTKLELK
Broadly, the koff is a measure of how fast the partners let go of each other. Low readings indicate slow dissociation, high ones fast dissociation. In assay [1], B1 showed a koff of 0.00111 s⁻¹ and a 响应 of 1.11.

B2: 2F9 (scFv, V domains shown)
VH: QVQLQQPGAELVKPGASMKLSCKASGYTFTSYWMHWVKQRPGQGLEWIGGIEQNSSETIYYEKFKSKATLTVDKSSSTAYMQLSSLTSEDSAVYYCAIIITPVVPKFDYWGQGTTLTVSS
VL: DIVMTQSHQFMSTSVGDRVSVTCKASHDVGTSVAWYQQKPGQSPKLLIYWASTRHTGVPDRFTGSGSGTDFTLTISNVQSEDLADYFCQQYSSYPLTFGAGTKLELK
In assay [1], B2 came in with a koff of 0.00166 s⁻¹ and a 响应 of 0.13.

B3: 8C9 (scFv, V domains shown)
VH: QVQLQQPGAELVKPGASMKLSCKASGYTFTSYWMHWVKQRPGQGLEWIGMIHPNSDNTIYYEKFKSKATLTVDKSSSTAYMQLSSLTSEDSAVYYCAIIITPVVPKFDYWGQGTTLTVSS
VL: DIVMTQSHQFMSTSVGDRVSVTCMASHDVGTSVAWYQQKPGQSPKLLIYWASTRHTGVPDRFTGSGSGTDFTLTISNVQSEDLADYFCQQYSSYPLTFGAGTKLELK
Consider B3, for which, in assay [1], the koff was found to be 0.000356 s⁻¹ and the 响应 turned out to be 0.93.

B4: 4D7 (scFv, V domains shown)
VH: QVQLQQPGAELVKPGASMKLSCKASGYTFTSYWMHWVKQRPGQGLEWIGMIHPNSDNTIYYEKFKSKATLTVDKSSSTAYMQLSSLTSEDSAVYYCAITISPVVPKFDYWGQGTTLTVSS
VL: DIVMTQSHQFMSTSVGDRVSVTCKASHDVGTSVAWYQQKPGQSPKLLIYWASTRHTGVPDRFTGSGSGTDFTLTISNVQSEDLADYFCQQYSSYPLTFGAGTKLELK
Regarding B4, in assay [1], the koff is 0.000321 s⁻¹ and the 响应 was 0.96.

B5: 7D5 (scFv, V domains shown)
VH: QVQLQQPGAELVKPGASMKLSCKASGYTFTSYWMHWVKQRPGQGLEWIGMIHPNSDNTIYYEKFKSKATLTVDKSSSTAYMQLSSLTSEDSAVYYCAIIITPVVPKFDYWGQGTTLTVSS
VL: DIVMTQSHQFMSTSVGDRVSVTCKASHDVGTSVAWYQQKPGQSPKLLIYKASNNKKGVPDRFTGSGSGTDFTLTISNVQSEDLADYFCQQYSSYPLTFGAGTKLELK
In assay [1], B5 gave an off-rate constant (koff) of 0.000395 s⁻¹ and a 响应 of 0.94.

B6: 9F5 (scFv, V domains shown)
VH: QVQLQQPGAELVKPGASMKLSCKASGYTFTSYWMHWVKQRPGQGLEWIGMIHPNSDNTIYYEKFKSKATLTVDKSSSTAYMQLSSLTSEDSAVYYCAIIITPVVPKFDYWGQGTTLTVSS
VL: DIVMTQSHQFMSTSVGDRVSVTCKASHDVGTSVAWYQQKPGQSPKLLIYQASKKEKGVPDRFTGSGSGTDFTLTISNVQSEDLADYFCQQYSSYPLTFGAGTKLELK
In assay [1], B6 showed a koff of 0.000294 s⁻¹ and a 响应 of 0.97.

B7: 7E10 (scFv, V domains shown)
VH: QVQLQQPGAELVKPGASMKLSCKASGYTFTSYWMHWVKQRPGQGLEWIGMIHPNSDNTIYYEKFKSKATLTVDKSSSTAYMQLSSLTSEDSAVYYCAIIITPVVPKFDYWGQGTTLTVSS
VL: DIVMTQSHQFMSTSVGDRVSVTCKASHDVGTSVAWYQQKPGQSPKLLIYNASSRGGGVPDRFTGSGSGTDFTLTISNVQSEDLADYFCQQYSSYPLTFGAGTKLELK
In assay [1], B7 yielded a koff of 0.000401 s⁻¹ and a 响应 of 1.02.

B8: 3E12 (scFv, V domains shown)
VH: QVQLQQPGAELVKPGASMKLSCKASGYTFTSYWMHWVKQRPGQGLEWIGMINLVSSRTIYYEKFKSKATLTVDKSSSTAYMQLSSLTSEDSAVYYCAIIITPVVPKFDYWGQGTTLTVSS
VL: DIVMTQSHQFMSTSVGDRVSVTCKASHDVGTSVAWYQQKPGQSPKLLIYWASTRHTGVPDRFTGSGSGTDFTLTISNVQSEDLADYFCQQYSSYPLTFGAGTKLELK
In assay [1], B8 registered a dissociation rate constant (koff) of 9.73e-05 s⁻¹ and a 响应 of 1.04.

B9: 4C11 (scFv, V domains shown)
VH: QVQLQQPGAELVKPGASMKLSCKASGYTFTSYWMHWVKQRPGQGLEWIGMIHLNSAQTIYYEKFKSKATLTVDKSSSTAYMQLSSLTSEDSAVYYCAIIITPVVPKFDYWGQGTTLTVSS
VL: DIVMTQSHQFMSTSVGDRVSVTCKASHDVGTSVAWYQQKPGQSPKLLIYWASTRHTGVPDRFTGSGSGTDFTLTISNVQSEDLADYFCQQYSSYPLTFGAGTKLELK
For the molecule B9, in assay [1], the koff was 0.000133 s⁻¹ and the 响应 is 1.16.

B10: 2D9 (scFv, V domains shown)
VH: QVQLQQPGAELVKPGASMKLSCKASGYTFTSYWMHWVKQRPGQGLEWIGMIHAQSDNTIYYEKFKSKATLTVDKSSSTAYMQLSSLTSEDSAVYYCAIIITPVVPKFDYWGQGTTLTVSS
VL: DIVMTQSHQFMSTSVGDRVSVTCKASHDVGTSVAWYQQKPGQSPKLLIYWASTRHTGVPDRFTGSGSGTDFTLTISNVQSEDLADYFCQQYSSYPLTFGAGTKLELK
In assay [1], B10 gave a koff of 0.000217 s⁻¹ and a 响应 of 1.25.

B11: 3F9 (scFv, V domains shown)
VH: QVQLQQPGAELVKPGASMKLSCKASGYTFTSYWMHWVKQRPGQGLEWIGMIHPNSQNTIYYEKFKSKATLTVDKSSSTAYMQLSSLTSEDSAVYYCAIIITPVVPKFDYWGQGTTLTVSS
VL: DIVMTQSHQFMSTSVGDRVSVTCKASHDVGTSVAWYQQKPGQSPKLLIYWASTRHTGVPDRFTGSGSGTDFTLTISNVQSEDLADYFCQQYSSYPLTFGAGTKLELK
In assay [1], B11 showed a koff of 0.000164 s⁻¹ and a 响应 of 1.38.

B12: 4A12 (scFv, V domains shown)
VH: QVQLQQPGAELVKPGASMKLSCKASGYTFTSYWMHWVKQRPGQGLEWIGMIHPNSDNTIYYEKFKSKATLTVDKSSSTAYMQLSSLTSEDSAVYYCAIVILPFLPKFDYWGQGTTLTVSS
VL: DIVMTQSHQFMSTSVGDRVSVTCKASHDVGTSVAWYQQKPGQSPKLLIYWASTRHTGVPDRFTGSGSGTDFTLTISNVQSEDLADYFCQQYSSYPLTFGAGTKLELK
On to B12, for which, in assay [1], the koff was found to be 0.0001 s⁻¹ and the 响应 stood at 0.91.

B13: MN单链抗体 (scFv MN, wild type) (scFv, V domains shown)
VH: QVQLQQPGAELVKPGASMKLSCKASGYTFTSYWMHWVKQRPGQGLEWIGMIHPNSDNTIYYEKFKSKATLTVDKSSSTAYMQLSSLTSEDSAVYYCAIIITPVVPKFDYWGQGTTLTVSS
VL: DIVMTQSHQFMSTSVGDRVSVTCKASHDVGTSVAWYQQKPGQSPKLLIYWASTRHTGVPDRFTGSGSGTDFTLTISNVQSEDLADYFCQQYSSYPLTFGAGTKLELK
Consider B13, for which the results for the koff in assay [2], in assay [3] and in assay [4] were 0.000221 s⁻¹, 0.000164 s⁻¹ and 0.000188 s⁻¹, respectively. For the same molecule, the figures for the 响应 in assay [2], in assay [3] and in assay [4] were 0.38, 0.37 and 0.37, respectively.

B14: 5F7 (scFv, V domains shown)
VH: QVQLQQPGAELVKPGASMKLSCKASGYTFTSYWMHWVKQRPGQGLEWIGMIHPNSDNTIYYEKFKSKATLTVDKSSSTAYMQLSSLTSEDSAVYYCAIIITPVVPKFDYWGQGTTLTVSS
VL: DIVMTQSHQFMSTSVGDRVSVTCKASHDVGTSVAWYQQKPGQSPKLLIYWASTRHTGVPDRFTGSGSGTDFTLTISNVQSEDLADYFCQQYASYPLSFGAGTKLELK
In assay [1], B14 yielded a koff of 0.000613 s⁻¹ and a 响应 of 0.73.
